Assays:
[1] = target: the molecule itself; assay: native gel or EMSA; blue native PAGE, 4.5 µg of each protein on a uniform 12% native gel, followed by in-gel activity staining
[2] = target: the molecule itself; assay: SEC; Superose 6 Increase 10/300 GL; 50 mM Tris-HCl (pH 8.0), 300 mM NaCl, 10 mM MgCl2; oligomeric state calculated from elution volumes of proteins of known size

| Protein | stoichiometry N [1] | stoichiometry N [2] |
| --- | --- | --- |
| KpUGP E69A (enzyme, UDP-glucose pyrophosphorylase (galU gene product) of K. pneumoniae DSM 30104; mutant of Strep-KpUGP; tag as in m1; no cleavage described) MAALNSKVRKAVIPVAGLGTRMLPATKAIPKEMLPLVDKPLIQYVVNECIAAGITEIVLVTHSSKNSIANHFDTSFELEAMLEKRVKRQLLEEVQSICPPHVTIMQVRQGLAKGLGHAVLCAHPVVGDEPVAVILPDVILDEYESDLSRDNLAEMISRFDETGASQIMVEPVEDVTAYGVVDCKGESLKPGESVPMVGVVEKPKADVAPSNLAVVGRYVLSADIWPLLAKTPPGAGDEIQLTDAIDMLIEKETVEAYHMKGKSHDCGNKLGYMQAFVEYGIRHKTLGDDFKAWLETAVAK | 4 | 4.4 |
| KpUGP F276A (enzyme, UDP-glucose pyrophosphorylase (galU gene product) of K. pneumoniae DSM 30104; mutant of Strep-KpUGP; tag as in m1; no cleavage described) MAALNSKVRKAVIPVAGLGTRMLPATKAIPKEMLPLVDKPLIQYVVNECIAAGITEIVLVTHSSKNSIENHFDTSFELEAMLEKRVKRQLLEEVQSICPPHVTIMQVRQGLAKGLGHAVLCAHPVVGDEPVAVILPDVILDEYESDLSRDNLAEMISRFDETGASQIMVEPVEDVTAYGVVDCKGESLKPGESVPMVGVVEKPKADVAPSNLAVVGRYVLSADIWPLLAKTPPGAGDEIQLTDAIDMLIEKETVEAYHMKGKSHDCGNKLGYMQAAVEYGIRHKTLGDDFKAWLETAVAK | 4 | 4.6 |
| KpUGP E238A (enzyme, UDP-glucose pyrophosphorylase (galU gene product) of K. pneumoniae DSM 30104; mutant of Strep-KpUGP; tag as in m1; no cleavage described) MAALNSKVRKAVIPVAGLGTRMLPATKAIPKEMLPLVDKPLIQYVVNECIAAGITEIVLVTHSSKNSIENHFDTSFELEAMLEKRVKRQLLEEVQSICPPHVTIMQVRQGLAKGLGHAVLCAHPVVGDEPVAVILPDVILDEYESDLSRDNLAEMISRFDETGASQIMVEPVEDVTAYGVVDCKGESLKPGESVPMVGVVEKPKADVAPSNLAVVGRYVLSADIWPLLAKTPPGAGDAIQLTDAIDMLIEKETVEAYHMKGKSHDCGNKLGYMQAFVEYGIRHKTLGDDFKAWLETAVAK | 4 | 4.4 |
| KpUGP D73A (enzyme, UDP-glucose pyrophosphorylase (galU gene product) of K. pneumoniae DSM 30104; mutant of Strep-KpUGP; tag as in m1; no cleavage described; dissociates progressively during storage on ice) MAALNSKVRKAVIPVAGLGTRMLPATKAIPKEMLPLVDKPLIQYVVNECIAAGITEIVLVTHSSKNSIENHFATSFELEAMLEKRVKRQLLEEVQSICPPHVTIMQVRQGLAKGLGHAVLCAHPVVGDEPVAVILPDVILDEYESDLSRDNLAEMISRFDETGASQIMVEPVEDVTAYGVVDCKGESLKPGESVPMVGVVEKPKADVAPSNLAVVGRYVLSADIWPLLAKTPPGAGDEIQLTDAIDMLIEKETVEAYHMKGKSHDCGNKLGYMQAFVEYGIRHKTLGDDFKAWLETAVAK |  | 2.7 |
| KpUGP E238Q (enzyme, UDP-glucose pyrophosphorylase (galU gene product) of K. pneumoniae DSM 30104; mutant of Strep-KpUGP; tag as in m1; no cleavage described) MAALNSKVRKAVIPVAGLGTRMLPATKAIPKEMLPLVDKPLIQYVVNECIAAGITEIVLVTHSSKNSIENHFDTSFELEAMLEKRVKRQLLEEVQSICPPHVTIMQVRQGLAKGLGHAVLCAHPVVGDEPVAVILPDVILDEYESDLSRDNLAEMISRFDETGASQIMVEPVEDVTAYGVVDCKGESLKPGESVPMVGVVEKPKADVAPSNLAVVGRYVLSADIWPLLAKTPPGAGDQIQLTDAIDMLIEKETVEAYHMKGKSHDCGNKLGYMQAFVEYGIRHKTLGDDFKAWLETAVAK | 4 | 4.4 |
| KpUGP E77A (enzyme, UDP-glucose pyrophosphorylase (galU gene product) of K. pneumoniae DSM 30104; mutant of Strep-KpUGP; tag as in m1; no cleavage described) MAALNSKVRKAVIPVAGLGTRMLPATKAIPKEMLPLVDKPLIQYVVNECIAAGITEIVLVTHSSKNSIENHFDTSFALEAMLEKRVKRQLLEEVQSICPPHVTIMQVRQGLAKGLGHAVLCAHPVVGDEPVAVILPDVILDEYESDLSRDNLAEMISRFDETGASQIMVEPVEDVTAYGVVDCKGESLKPGESVPMVGVVEKPKADVAPSNLAVVGRYVLSADIWPLLAKTPPGAGDEIQLTDAIDMLIEKETVEAYHMKGKSHDCGNKLGYMQAFVEYGIRHKTLGDDFKAWLETAVAK | 4 | 4.5 |
| KpUGP R108K (enzyme, UDP-glucose pyrophosphorylase (galU gene product) of K. pneumoniae DSM 30104; mutant of Strep-KpUGP; tag as in m1; no cleavage described; also called R108R (as printed once in the text)) MAALNSKVRKAVIPVAGLGTRMLPATKAIPKEMLPLVDKPLIQYVVNECIAAGITEIVLVTHSSKNSIENHFDTSFELEAMLEKRVKRQLLEEVQSICPPHVTIMQVKQGLAKGLGHAVLCAHPVVGDEPVAVILPDVILDEYESDLSRDNLAEMISRFDETGASQIMVEPVEDVTAYGVVDCKGESLKPGESVPMVGVVEKPKADVAPSNLAVVGRYVLSADIWPLLAKTPPGAGDEIQLTDAIDMLIEKETVEAYHMKGKSHDCGNKLGYMQAFVEYGIRHKTLGDDFKAWLETAVAK |  | 2.4 |
| KpUGP K65A (enzyme, UDP-glucose pyrophosphorylase (galU gene product) of K. pneumoniae DSM 30104; mutant of Strep-KpUGP; tag as in m1; no cleavage described) MAALNSKVRKAVIPVAGLGTRMLPATKAIPKEMLPLVDKPLIQYVVNECIAAGITEIVLVTHSSANSIENHFDTSFELEAMLEKRVKRQLLEEVQSICPPHVTIMQVRQGLAKGLGHAVLCAHPVVGDEPVAVILPDVILDEYESDLSRDNLAEMISRFDETGASQIMVEPVEDVTAYGVVDCKGESLKPGESVPMVGVVEKPKADVAPSNLAVVGRYVLSADIWPLLAKTPPGAGDEIQLTDAIDMLIEKETVEAYHMKGKSHDCGNKLGYMQAFVEYGIRHKTLGDDFKAWLETAVAK |  | 2 |
| KpUGP K27A (enzyme, UDP-glucose pyrophosphorylase (galU gene product) of K. pneumoniae DSM 30104; mutant of Strep-KpUGP; tag as in m1; no cleavage described) MAALNSKVRKAVIPVAGLGTRMLPATAAIPKEMLPLVDKPLIQYVVNECIAAGITEIVLVTHSSKNSIENHFDTSFELEAMLEKRVKRQLLEEVQSICPPHVTIMQVRQGLAKGLGHAVLCAHPVVGDEPVAVILPDVILDEYESDLSRDNLAEMISRFDETGASQIMVEPVEDVTAYGVVDCKGESLKPGESVPMVGVVEKPKADVAPSNLAVVGRYVLSADIWPLLAKTPPGAGDEIQLTDAIDMLIEKETVEAYHMKGKSHDCGNKLGYMQAFVEYGIRHKTLGDDFKAWLETAVAK |  | 2.1 |
| KpUGP F276H (enzyme, UDP-glucose pyrophosphorylase (galU gene product) of K. pneumoniae DSM 30104; mutant of Strep-KpUGP; tag as in m1; no cleavage described) MAALNSKVRKAVIPVAGLGTRMLPATKAIPKEMLPLVDKPLIQYVVNECIAAGITEIVLVTHSSKNSIENHFDTSFELEAMLEKRVKRQLLEEVQSICPPHVTIMQVRQGLAKGLGHAVLCAHPVVGDEPVAVILPDVILDEYESDLSRDNLAEMISRFDETGASQIMVEPVEDVTAYGVVDCKGESLKPGESVPMVGVVEKPKADVAPSNLAVVGRYVLSADIWPLLAKTPPGAGDEIQLTDAIDMLIEKETVEAYHMKGKSHDCGNKLGYMQAHVEYGIRHKTLGDDFKAWLETAVAK | 4 | 4.5 |
| KpUGP K27Q (enzyme, UDP-glucose pyrophosphorylase (galU gene product) of K. pneumoniae DSM 30104; mutant of Strep-KpUGP; tag as in m1; no cleavage described; eluted predominantly as dimers) MAALNSKVRKAVIPVAGLGTRMLPATQAIPKEMLPLVDKPLIQYVVNECIAAGITEIVLVTHSSKNSIENHFDTSFELEAMLEKRVKRQLLEEVQSICPPHVTIMQVRQGLAKGLGHAVLCAHPVVGDEPVAVILPDVILDEYESDLSRDNLAEMISRFDETGASQIMVEPVEDVTAYGVVDCKGESLKPGESVPMVGVVEKPKADVAPSNLAVVGRYVLSADIWPLLAKTPPGAGDEIQLTDAIDMLIEKETVEAYHMKGKSHDCGNKLGYMQAFVEYGIRHKTLGDDFKAWLETAVAK |  | 2.2 |
| KpUGP D73N (enzyme, UDP-glucose pyrophosphorylase (galU gene product) of K. pneumoniae DSM 30104; mutant of Strep-KpUGP; tag as in m1; no cleavage described) MAALNSKVRKAVIPVAGLGTRMLPATKAIPKEMLPLVDKPLIQYVVNECIAAGITEIVLVTHSSKNSIENHFNTSFELEAMLEKRVKRQLLEEVQSICPPHVTIMQVRQGLAKGLGHAVLCAHPVVGDEPVAVILPDVILDEYESDLSRDNLAEMISRFDETGASQIMVEPVEDVTAYGVVDCKGESLKPGESVPMVGVVEKPKADVAPSNLAVVGRYVLSADIWPLLAKTPPGAGDEIQLTDAIDMLIEKETVEAYHMKGKSHDCGNKLGYMQAFVEYGIRHKTLGDDFKAWLETAVAK |  | 2.4 |
| KpUGP K10A (enzyme, UDP-glucose pyrophosphorylase (galU gene product) of K. pneumoniae DSM 30104; mutant of Strep-KpUGP; tag as in m1; no cleavage described) MAALNSKVRAAVIPVAGLGTRMLPATKAIPKEMLPLVDKPLIQYVVNECIAAGITEIVLVTHSSKNSIENHFDTSFELEAMLEKRVKRQLLEEVQSICPPHVTIMQVRQGLAKGLGHAVLCAHPVVGDEPVAVILPDVILDEYESDLSRDNLAEMISRFDETGASQIMVEPVEDVTAYGVVDCKGESLKPGESVPMVGVVEKPKADVAPSNLAVVGRYVLSADIWPLLAKTPPGAGDEIQLTDAIDMLIEKETVEAYHMKGKSHDCGNKLGYMQAFVEYGIRHKTLGDDFKAWLETAVAK |  | 3.1 |
| KpUGP K65R (enzyme, UDP-glucose pyrophosphorylase (galU gene product) of K. pneumoniae DSM 30104; mutant of Strep-KpUGP; tag as in m1; no cleavage described) MAALNSKVRKAVIPVAGLGTRMLPATKAIPKEMLPLVDKPLIQYVVNECIAAGITEIVLVTHSSRNSIENHFDTSFELEAMLEKRVKRQLLEEVQSICPPHVTIMQVRQGLAKGLGHAVLCAHPVVGDEPVAVILPDVILDEYESDLSRDNLAEMISRFDETGASQIMVEPVEDVTAYGVVDCKGESLKPGESVPMVGVVEKPKADVAPSNLAVVGRYVLSADIWPLLAKTPPGAGDEIQLTDAIDMLIEKETVEAYHMKGKSHDCGNKLGYMQAFVEYGIRHKTLGDDFKAWLETAVAK |  | 2.4 |
| KpUGP E69D (enzyme, UDP-glucose pyrophosphorylase (galU gene product) of K. pneumoniae DSM 30104; mutant of Strep-KpUGP; tag as in m1; no cleavage described) MAALNSKVRKAVIPVAGLGTRMLPATKAIPKEMLPLVDKPLIQYVVNECIAAGITEIVLVTHSSKNSIDNHFDTSFELEAMLEKRVKRQLLEEVQSICPPHVTIMQVRQGLAKGLGHAVLCAHPVVGDEPVAVILPDVILDEYESDLSRDNLAEMISRFDETGASQIMVEPVEDVTAYGVVDCKGESLKPGESVPMVGVVEKPKADVAPSNLAVVGRYVLSADIWPLLAKTPPGAGDEIQLTDAIDMLIEKETVEAYHMKGKSHDCGNKLGYMQAFVEYGIRHKTLGDDFKAWLETAVAK | 4 | 4.6 |
| KpUGP E77Q (enzyme, UDP-glucose pyrophosphorylase (galU gene product) of K. pneumoniae DSM 30104; mutant of Strep-KpUGP; tag as in m1; no cleavage described) MAALNSKVRKAVIPVAGLGTRMLPATKAIPKEMLPLVDKPLIQYVVNECIAAGITEIVLVTHSSKNSIENHFDTSFQLEAMLEKRVKRQLLEEVQSICPPHVTIMQVRQGLAKGLGHAVLCAHPVVGDEPVAVILPDVILDEYESDLSRDNLAEMISRFDETGASQIMVEPVEDVTAYGVVDCKGESLKPGESVPMVGVVEKPKADVAPSNLAVVGRYVLSADIWPLLAKTPPGAGDEIQLTDAIDMLIEKETVEAYHMKGKSHDCGNKLGYMQAFVEYGIRHKTLGDDFKAWLETAVAK | 4 | 4.6 |
| KpUGP R108A (enzyme, UDP-glucose pyrophosphorylase (galU gene product) of K. pneumoniae DSM 30104; mutant of Strep-KpUGP; tag as in m1; no cleavage described) MAALNSKVRKAVIPVAGLGTRMLPATKAIPKEMLPLVDKPLIQYVVNECIAAGITEIVLVTHSSKNSIENHFDTSFELEAMLEKRVKRQLLEEVQSICPPHVTIMQVAQGLAKGLGHAVLCAHPVVGDEPVAVILPDVILDEYESDLSRDNLAEMISRFDETGASQIMVEPVEDVTAYGVVDCKGESLKPGESVPMVGVVEKPKADVAPSNLAVVGRYVLSADIWPLLAKTPPGAGDEIQLTDAIDMLIEKETVEAYHMKGKSHDCGNKLGYMQAFVEYGIRHKTLGDDFKAWLETAVAK |  | 2.2 |

From publication PMC11796359, “Identification and characterization of the functional tetrameric UDP-glucose pyrophosphorylase from Klebsiella pneumoniae” (mBio, 2024)
